From the supplement of paper PMC10724198
± gives the standard deviation of the averaged measurements.

What was measured:
Saccharomyces cerevisiae [1] = assay: protein stability index of tFT-peptide fusion (C-terminal peptide) (PSI (0-1 scale)); higher = more stable (slower turnover)
Method: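 MPS profiling in S. cerevisiae of the tFT-X12 degron library: putative degron peptides plus stable controls, 12 aa, fused to the C-terminus of a sfGFP-mCherry timer. Cells are FACS-sorted into 8 mCherry/sfGFP bins and deep-sequenced. PSI runs from 0 (unstable) to 1 (stable). Backgrounds are wild type, das1Δ and doa10Δ at 30 °C, and wild type, das1Δ, cdc34-1 and cdc53-1 at 37 °C; 2-3 technical replicates each.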

Saccharomyces cerevisiae [2] = assay: as above; conditions: genetic background: wild type; temperature: 30 C
[3] = genetic background: cdc34-1, temperature: 37 C
[4] = genetic background: cdc53-1, temperature: 37 C
[5] = genetic background: das1 deletion, temperature: 30 C
[6] = genetic background: das1 deletion, temperature: 37 C
[7] = genetic background: doa10 deletion, temperature: 30 C
[8] = genetic background: wild type, temperature: 30 C
[9] = genetic background: wild type, temperature: 37 C
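Also: PSI is a weighted mean of sequencing reads over stability bins, variants kept only with over 10 reads, mCherry proximal and sfGFP distal, peptide attached via GGGS linker.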

Row | Sequence | protein stability index (Saccharomyces cerevisiae [1]; [3]) | protein stability index (Saccharomyces cerevisiae [1]; [4]) | protein stability index (Saccharomyces cerevisiae [1]; [5]) | protein stability index (Saccharomyces cerevisiae [1]; [6]) | protein stability index (Saccharomyces cerevisiae [1]; [7]) | protein stability index (Saccharomyces cerevisiae [1]; [8]) | protein stability index (Saccharomyces cerevisiae [1]; [9]) | protein stability index (Saccharomyces cerevisiae [2])
1 | FLFCMIFIFRCF | 0.216 ± 0.011 | 0.196 ± 0.026 | 0.233 ± 0.031 | 0.339 ± 0.025 | 0.203 ± 0.025 | 0.165 ± 0.015 | 0.252 ± 0.022 | 0.276 ± 0.1
2 | LFVFTYPFLSWL | 0.617 ± 0.011 | 0.66 ± 0.011 | 0.591 ± 0.042 | 0.6963 ± 0.0031 | 0.552 ± 0.028 | 0.514 ± 0.016 | 0.615 ± 0.0094 | 0.478 ± 0.0061
3 | PVGLMKRFRLFI | 0.698 ± 0.088 | 0.727 ± 0.02 | 0.615 ± 0.031 | 0.716 ± 0.023 | 0.332 ± 0.012 | 0.364 ± 0.031 | 0.626 ± 0.018 | 0.455 ± 0.058
4 | PRHLTPPPAPSA | 0.704 ± 0.059 | 0.721 ± 0.024 | 0.675 ± 0.022 | 0.708 ± 0.013 | 0.66 ± 0.038 | 0.659 ± 0.022 | 0.6742 ± 0.0042 | 0.642 ± 0.24
5 | LVLFVVGGWVSL | 0.35 ± 0.023 | 0.474 ± 0.082 | 0.316 ± 0.023 | 0.551 ± 0.014 | 0.279 ± 0.0085 | 0.311 ± 0.029 | 0.54 ± 0.076 | 0.445 ± 0.043
6 | RKVWSLCWFVHL | 0.49 ± 0.071 | 0.617 ± 0.012 | 0.512 ± 0.012 | 0.65 ± 0.008 | 0.0695 ± 0.0078 | 0.0716 ± 0.015 | 0.0795 ± 0.0077 | 0.116 ± 0.0023
7 | VLAARVVLLRCR | 0.207 ± 0.0095 | 0.216 ± 0.033 | 0.199 ± 0.031 | 0.335 ± 0.0052 | 0.179 ± 0.0064 | 0.195 ± 0.028 | 0.3113 ± 0.001 | 0.2612 ± 0.0024
8 | GSVGFICCVVVV | 0.29 ± 0.022 | 0.4314 ± 0.0042 | 0.332 ± 0.03 | 0.515 ± 0.0078 | 0.268 ± 0.017 | 0.298 ± 0.031 | 0.4546 ± 0.0022 | 0.412 ± 0.0011
9 | FGLMCFIFYVLV | 0.2 ± 0.018 | 0.331 ± 0.03 | 0.236 ± 0.021 | 0.3756 ± 0.0017 | 0.223 ± 0.016 | 0.225 ± 0.018 | 0.337 ± 0.0078 | 0.307 ± 0.057
10 | VFGFSLLTLLVL | 0.441 ± 0.0078 | 0.511 ± 0.025 | 0.386 ± 0.0081 | 0.5062 ± 0.0021 | 0.324 ± 0.011 | 0.347 ± 0.024 | 0.467 ± 0.019 | 0.439 ± 0.022
11 | RTWLHLVVPVWG | 0.213 ± 0.026 | 0.265 ± 0.044 | 0.222 ± 0.034 | 0.3778 ± 0.0024 | 0.19 ± 0.0051 | 0.228 ± 0.037 | 0.318 ± 0.014 | 0.3367 ± 0.0022
12 | VIGLLSYFLVYL | 0.498 ± 0.061 | 0.513 ± 0.0062 | 0.407 ± 0.037 | 0.6091 ± 0.0039 | 0.438 ± 0.032 | 0.406 ± 0.019 | 0.581 ± 0.03 | 0.491 ± 0.02
13 | GYRFSILSILRV | 0.581 ± 0.031 | 0.611 ± 0.014 | 0.513 ± 0.024 | 0.627 ± 0.012 | 0.488 ± 0.017 | 0.47 ± 0.023 | 0.612 ± 0.016 | 0.482 ± 0.025
14 | MQFVALFLVGLL | 0.465 ± 0.041 | 0.5087 ± 0.001 | 0.346 ± 0.049 | 0.5245 ± 0.0022 | 0.308 ± 0.0095 | 0.354 ± 0.023 | 0.509 ± 0.0056 | 0.465 ± 0.0047
15 | CRLFFVFVFFWW | 0.22 ± 0.04 | 0.179 ± 0.024 | 0.253 ± 0.03 | 0.322 ± 0.0059 | 0.311 ± 0.01 | 0.249 ± 0.022 | 0.274 ± 0.023 | 0.253 ± 0.095
16 | VLCFTSAYHRLV | 0.662 ± 0.017 | 0.739 ± 0.015 | 0.631 ± 0.0098 | 0.724 ± 0.014 | 0.206 ± 0.014 | 0.262 ± 0.019 | 0.5171 ± 0.0028 | 0.425 ± 0.049
17 | VCLWAIHLSGCW | 0.546 ± 0.046 | 0.601 ± 0.048 | 0.46 ± 0.022 | 0.58776 ± 0.00056 | 0.453 ± 0.021 | 0.449 ± 0.03 | 0.584 ± 0.014 | 0.475 ± 0.035
18 | WFLMVILYTVYG | 0.157 ± 0.0068 | 0.2 ± 0.0073 | 0.182 ± 0.035 | 0.304 ± 0.0055 | 0.149 ± 0.033 | 0.187 ± 0.032 | 0.278 ± 0.013 | 0.299 ± 0.0077
19 | FSVTTLTILCLR | 0.305 ± 0.017 | 0.329 ± 0.011 | 0.273 ± 0.029 | 0.394 ± 0.017 | 0.49 ± 0.061 | 0.277 ± 0.02 | 0.382 ± 0.0086 | 0.3497 ± 0.0014
20 | PHGASLCVPPSP | 0.675 ± 0.025 | 0.739 ± 0.0082 | 0.647 ± 0.0089 | 0.7271 ± 0.0072 | 0.645 ± 0.02 | 0.651 ± 0.014 | 0.69931 ± 2.1e-06 | 0.491 ± 0.0074
